Sequences and labels used below:
B1: Ankyrin-1, residues 1405 to 1484; numbered along this chain, P16157 (parent)
chain: MKMAVISEHLGLSWAELARELQFSVEDINRIRVENPNSLLEQSVALLNLWVIREGQNANMENLYTALQSIDRGEIVNMLE

Experimental findings from the Human Domainome abundance scans (Beltran et al. 2025) are described below.

± gives the uncertainty stated by the source.

This data set covers variants of B1. Put plainly: abundance fitness (aPCA) (normalised: wild type 0, dead -1); higher = more abundant; growth selection in yeast, the domain comes from the species named. The following applies: Homo sapiens.
With V33A, the abundance fitness came out at 0.096 ± 0.057.

In the case of V33R, the abundance fitness was 0.021 ± 0.038. Then A58L, with 0.157 ± 0.063. Then A58W, with -0.062 ± 0.077; and A58K, with 0.046 ± 0.057. As to N57D, the abundance fitness is -0.072 ± 0.15. Regarding N57E, the abundance fitness was 0.163 ± 0.15. With E26F, the abundance fitness was -0.369 ± 0.14. The same measure for V76E: -0.358 ± 0.094.

Take V76M: the abundance fitness is -0.307 ± 0.097.

With V5I, the abundance fitness is -0.337 ± 0.15.

As for V5E, the abundance fitness is -0.372 ± 0.096.

In the case of V5H, the abundance fitness is -0.216 ± 0.1.

As to L67M, the abundance fitness was -0.092 ± 0.1. In the case of L67T, the abundance fitness is -0.965 ± 0.29. On to E8Q, for which the abundance fitness amounted to 0.067 ± 0.17. Take E8P: the abundance fitness was -0.24 ± 0.1.

As for M60A, the abundance fitness was -0.343 ± 0.16. In the case of M60V, the abundance fitness turned out to be 0.117 ± 0.12. L21R: the abundance fitness was -0.923 ± 0.26. Consider L21W, for which the abundance fitness was -0.666 ± 0.13. The same measure for N62P: -0.265 ± 0.15; for P36H: -0.31 ± 0.12; for P36C: -0.069 ± 0.098. Consider M3H, for which the abundance fitness was -0.233 ± 0.26. As for R30T, the abundance fitness is -0.226 ± 0.086.

Turning to R30Y, the abundance fitness was -0.298 ± 0.16.

For the variant I31C, the abundance fitness was -0.872 ± 0.2.

For R19N, the abundance fitness is -0.32 ± 0.23. Turning to Q22S, the abundance fitness was found to be 0.018 ± 0.055.

Q22W: the abundance fitness was -0.506 ± 0.088.

Regarding Q22D, the abundance fitness is -0.218 ± 0.11. In the case of N37D, the abundance fitness is -0.023 ± 0.13. Take N37V: the abundance fitness is -0.277 ± 0.097. On to N37Y, for which the abundance fitness was -0.322 ± 0.2. Then I75S, with -0.457 ± 0.1; and I75L, with -0.199 ± 0.08. Turning to I75H, the abundance fitness is -0.594 ± 0.27. As to I75V, the abundance fitness is -0.098 ± 0.073. Then V44W, with -0.021 ± 0.083; and V44P, with -0.911 ± 0.25; and V44T, with 0.161 ± 0.081. As for R32W, the abundance fitness is -0.31 ± 0.45. For the variant R32K, the abundance fitness is -0.3 ± 0.12. Then R32I, with -0.124 ± 0.071. Turning to R32G, the abundance fitness is -0.212 ± 0.06. Turning to R32L, the abundance fitness was -0.095 ± 0.056. With L49A, the abundance fitness is -0.138 ± 0.057. Then F23L, with -0.443 ± 0.061; and F23T, with -0.908 ± 0.31. Take G11C: the abundance fitness was -0.737 ± 0.2. In the case of G11L, the abundance fitness is -0.447 ± 0.11. G11A: the abundance fitness was -0.47 ± 0.079. As for L63V, the abundance fitness was -0.136 ± 0.042. As for L40I, the abundance fitness turned out to be 0.061 ± 0.14. The same measure for L40Y: -0.189 ± 0.11. Consider L40A, for which the abundance fitness was -0.11 ± 0.052.

As to L40S, the abundance fitness is -0.16 ± 0.059.

As to N35R, the abundance fitness was -0.068 ± 0.11. Consider N35M, for which the abundance fitness is -0.317 ± 0.17. The same measure for S7F: -0.126 ± 0.12; for S7H: -0.877 ± 0.39. Take G55E: the abundance fitness is -0.266 ± 0.18. Regarding G55T, the abundance fitness is -0.133 ± 0.15. Then G55S, with -0.277 ± 0.12; and S69W, with -0.291 ± 0.08; and S69I, with -0.047 ± 0.078. On to S69L, for which the abundance fitness is -0.161 ± 0.056. For the variant E61D, the abundance fitness was -0.1 ± 0.28.

On to R72T, for which the abundance fitness was -0.797 ± 0.21. Take R72C: the abundance fitness is -0.146 ± 0.14. For the variant A66H, the abundance fitness was -0.151 ± 0.087. The same measure for A66V: -0.749 ± 0.097; for A66K: -0.263 ± 0.12. With A66L, the abundance fitness was -0.977 ± 0.11. Regarding H9V, the abundance fitness is -0.712 ± 0.13. For the variant H9D, the abundance fitness is -0.826 ± 0.3. Take Q68S: the abundance fitness was -0.199 ± 0.062. With Q68A, the abundance fitness is -0.012 ± 0.058.

On to Q68E, for which the abundance fitness is -0.102 ± 0.082. Turning to I70R, the abundance fitness is -0.437 ± 0.078. Regarding I70Y, the abundance fitness was -0.152 ± 0.25.

As for I70G, the abundance fitness is -0.911 ± 0.11. As to I70M, the abundance fitness is -0.651 ± 0.19. Consider N29H, for which the abundance fitness is -0.37 ± 0.2. In the case of N29S, the abundance fitness is -0.156 ± 0.062. The same measure for N29W: -0.148 ± 0.051; for W14K: -0.545 ± 0.21; for N48T: -0.544 ± 0.11. N48I: the abundance fitness was -1.04 ± 0.24.

Regarding E54I, the abundance fitness is -0.931 ± 0.26. As to E54P, the abundance fitness is -0.977 ± 0.25. For the variant E54F, the abundance fitness was -0.606 ± 0.15. Consider R53V, for which the abundance fitness is -0.847 ± 0.11. The same measure for R53F: -0.927 ± 0.22; for R53A: -0.555 ± 0.078; for R53H: -0.758 ± 0.23. Take R53N: the abundance fitness was -0.31 ± 0.26.

For the variant E74H, the abundance fitness is -0.082 ± 0.18.

Take S43N: the abundance fitness is -0.099 ± 0.27. With S43C, the abundance fitness is -0.552 ± 0.11. On to S43G, for which the abundance fitness is 0 ± 0.049. As for S43L, the abundance fitness is -0.944 ± 0.13. Take S43K: the abundance fitness was -0.598 ± 0.15. For the variant L12K, the abundance fitness was -0.133 ± 0.2. The same measure for L12E: -0.499 ± 0.29. Then L12R, with -0.038 ± 0.09. As for L12F, the abundance fitness was -0.069 ± 0.2. The same measure for L12I: 0.153 ± 0.32; for W50A: -0.902 ± 0.2. Turning to W50P, the abundance fitness is -1 ± 0.26. The same measure for W50L: -0.368 ± 0.082; for L39T: 0.116 ± 0.16; for L17W: -0.636 ± 0.12. Then L17P, with -0.881 ± 0.23; and L79D, with -0.54 ± 0.32; and E34H, with -0.453 ± 0.18. The same measure for E16H: -0.104 ± 0.12. As to E20Q, the abundance fitness is 0.069 ± 0.12.

Take E41W: the abundance fitness is -0.563 ± 0.1. Then A15W, with -0.288 ± 0.065; and A15T, with 0 ± 0.064; and L46D, with -1.1 ± 0.41.

Regarding V25P, the abundance fitness was determined as 0.018 ± 0.076. As for V25S, the abundance fitness worked out at 0.002 ± 0.054. Turning to V25E, the abundance fitness was determined as 0.078 ± 0.06.

Regarding V25R, the abundance fitness was -0.07 ± 0.046. Take V25D: the abundance fitness was -0.05 ± 0.1.

For the variant V51H, the abundance fitness was determined as 0.026 ± 0.1.

As for V51F, the abundance fitness turned out to be 0.071 ± 0.11. Then A4S, with -0.259 ± 0.083; and A4V, with -0.35 ± 0.074; and S13Y, with -0.504 ± 0.15. For S13A, the abundance fitness was -0.021 ± 0.11.

Regarding S13W, the abundance fitness was -0.494 ± 0.16.

Turning to I28E, the abundance fitness was -0.627 ± 0.11.

As to I28T, the abundance fitness is -0.43 ± 0.11. For the variant I28K, the abundance fitness was -0.686 ± 0.18. As to K2N, the abundance fitness is -0.081 ± 0.095.

A45T: the abundance fitness is -0.085 ± 0.074. The same measure for A45R: -0.147 ± 0.036; for A45D: -0.306 ± 0.08; for A45S: -0.03 ± 0.057. A45Y: the abundance fitness was -0.565 ± 0.15. Regarding N59G, the abundance fitness is -0.151 ± 0.058. Take N59K: the abundance fitness is -0.02 ± 0.19. As for N59P, the abundance fitness is -0.253 ± 0.12. Turning to N59D, the abundance fitness was determined as 0.245 ± 0.11. Take S38E: the abundance fitness was -0.514 ± 0.23. The same measure for D71A: -0.229 ± 0.053; for D71L: -0.811 ± 0.095; for D71N: 0.006 ± 0.083. With N77W, the abundance fitness amounted to 0.018 ± 0.1. For N77L, the abundance fitness was -0.043 ± 0.07. For N77D, the abundance fitness was -0.347 ± 0.19.

Take N77C: the abundance fitness was -0.479 ± 0.18. For the variant N77K, the abundance fitness is 0.03 ± 0.12. With N77H, the abundance fitness was -0.175 ± 0.22.

For the variant Q42V, the abundance fitness is -0.813 ± 0.1.

Regarding Q42I, the abundance fitness was -0.915 ± 0.27.

With Q56I, the abundance fitness turned out to be 0.097 ± 0.17. For the variant Q56M, the abundance fitness was -0.061 ± 0.11. The same measure for G73Y: -0.339 ± 0.085; for M78K: 0.087 ± 0.11; for M78S: -0.121 ± 0.066. Take M78D: the abundance fitness was -0.013 ± 0.096. On to Y64Q, for which the abundance fitness was -0.594 ± 0.2.
